Data reported in the supplement of paper PMC7125110.
± gives the standard error. For some assays here: This sample holds only a part of the variants without activity.

B1: glmS ribozyme (parent)
chain: AUAAAAGCGCCAGAACUACAGAAAUGUAGUUGACGAGGAGGAGGUUUAUCGAAUUUUCGGCGGAUGCCUCCAAA

Key:
Settings in all cases: with glucosamine-6-phosphate
glucosamine-6-phosphate [1] = variants of: B1; assay: kcat; higher = faster cleavage; RNA array
Method in brief: (§1)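 Sequenced MiSeq chips were the platform: E. coli RNA polymerase transcribed barcoded ribozyme variants on them in situ, and a hybridised Cy3 probe tracked these at 37 °C. After glucosamine-6-phosphate (40 μM to 10 mM) in HEPES/KCl/Mg(OAc)2 buffer was flowed in, tiles were imaged over ~14 h. Signals normalised to baseline and to non-cleaving reference variants were reduced to per-tile medians and fit to one- or two-exponential decays to obtain kobs. kcat and KM were derived through weighted Michaelis–Menten fits across concentrations.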

glucosamine-6-phosphate [2] = variants of: B1; assay: self-cleavage kobs at 2500 uM GlcN6P; higher = faster cleavage; RNA array
Method in brief: as §1

glucosamine-6-phosphate [3] = variants of: B1; assay: self-cleavage kobs at 10000 uM GlcN6P; higher = faster cleavage; RNA array
Method in brief: as §1

glucosamine-6-phosphate [4] = variants of: B1; assay: KM; higher = weaker cofactor use; RNA array
Method in brief: as §1

glucosamine-6-phosphate [5] = variants of: B1; assay: self-cleavage kobs at 640 uM GlcN6P; higher = faster cleavage; RNA array
Method in brief: as §1

glucosamine-6-phosphate [6] = variants of: B1; assay: self-cleavage kobs at 40 uM GlcN6P; higher = faster cleavage; RNA array
Method in brief: as §1

glucosamine-6-phosphate [7] = variants of: B1; assay: self-cleavage kobs at 160 uM GlcN6P; higher = faster cleavage; RNA array
Method in brief: as §1

| Variant | kcat (glucosamine-6-phosphate [1]) | self-cleavage kobs at 2500 uM GlcN6P (glucosamine-6-phosphate [2]) | self-cleavage kobs at 10000 uM GlcN6P (glucosamine-6-phosphate [3]) | KM (glucosamine-6-phosphate [4]) | self-cleavage kobs at 640 uM GlcN6P (glucosamine-6-phosphate [5]) | self-cleavage kobs at 40 uM GlcN6P (glucosamine-6-phosphate [6]) | self-cleavage kobs at 160 uM GlcN6P (glucosamine-6-phosphate [7]) |
| --- | --- | --- | --- | --- | --- | --- | --- |
| G44C U54C | 0.000264 ± 8.4e-05 s⁻¹ | 0.000133 ± 2.4e-05 s⁻¹ | 0.000179 ± 3e-05 s⁻¹ |  |  |  |  |
| A48C C71U | 0.000393 ± 1.6e-05 s⁻¹ | 0.000123 ± 1.7e-05 s⁻¹ | 0.00026 ± 2.4e-05 s⁻¹ | 5220 ± 390 µM | 4.42e-05 ± 7.8e-06 s⁻¹ |  |  |
| U45A C71A | 0.00337 ± 0.0013 s⁻¹ | 0.00202 ± 0.00085 s⁻¹ | 0.00396 ± 0.00073 s⁻¹ |  | 0.000907 ± 0.00022 s⁻¹ | 0.00019 ± 3.7e-05 s⁻¹ | 0.000518 ± 0.00016 s⁻¹ |
| G51A G62A | < 1e-05 s⁻¹ |  |  |  |  | < 1e-05 s⁻¹ |  |
| U57C U69G | 2.77e-05 ± 6.2e-06 s⁻¹ |  |  |  | 3.38e-05 ± 1.3e-05 s⁻¹ |  | 3.31e-05 ± 1.4e-05 s⁻¹ |
| U31G U45A | 0.0285 ± 0.0073 s⁻¹ | 0.0105 ± 0.0037 s⁻¹ | 0.0291 ± 0.0063 s⁻¹ | 2180 ± 720 µM | 0.00653 ± 0.0013 s⁻¹ | 0.000531 ± 0.00011 s⁻¹ | 0.00206 ± 0.0004 s⁻¹ |
| A39U G41U | 0.00058 ± 0.00011 s⁻¹ | 0.000402 ± 6.4e-05 s⁻¹ | 0.000489 ± 6.8e-05 s⁻¹ | 1710 ± 530 µM | 0.000138 ± 1.7e-05 s⁻¹ |  | 6.52e-05 ± 1.2e-05 s⁻¹ |
| C16G C50A U57C C68U C71G | 2.93e-05 ± 8.8e-06 s⁻¹ |  |  |  |  |  |  |
| G41U A48U | 5.64e-05 ± 5.9e-06 s⁻¹ |  | 4.45e-05 ± 1.4e-05 s⁻¹ | 2530 ± 840 µM |  |  |  |
| U57C C67G | 2.59e-05 ± 3.7e-06 s⁻¹ | 3.12e-05 ± 1.1e-05 s⁻¹ | 2.21e-05 ± 8.5e-06 s⁻¹ |  |  | < 1e-05 s⁻¹ |  |
| C10U G66A | 1.5e-05 ± 2.3e-06 s⁻¹ |  |  |  |  |  |  |
| A15U U69A | 7.22e-05 ± 1.3e-05 s⁻¹ | 8.33e-05 ± 1e-05 s⁻¹ | 5.39e-05 ± 1.2e-05 s⁻¹ |  | 4.48e-05 ± 1.1e-05 s⁻¹ |  |  |
| G38A C61G | 1.44e-05 ± 3.1e-06 s⁻¹ |  |  |  |  |  |  |
| G38U G51U | < 1e-05 s⁻¹ |  |  |  |  |  |  |
| G41U C70A | 0.0306 ± 0.013 s⁻¹ | 0.0568 ± 0.016 s⁻¹ |  |  | 0.0189 ± 0.0026 s⁻¹ | 0.00288 ± 0.00022 s⁻¹ | 0.00721 ± 0.0009 s⁻¹ |
| G66C C70U | 0.00129 ± 0.00032 s⁻¹ | 0.00109 ± 0.00013 s⁻¹ | 0.0011 ± 0.00011 s⁻¹ | 1440 ± 670 µM | 0.000285 ± 4.7e-05 s⁻¹ | 4.77e-05 ± 9.1e-06 s⁻¹ | 0.000178 ± 3.5e-05 s⁻¹ |
| C16A U46G | 0.000285 ± 5.2e-05 s⁻¹ | 0.000212 ± 3e-05 s⁻¹ | 0.000222 ± 3.3e-05 s⁻¹ | 1720 ± 670 µM | 7.33e-05 ± 1.3e-05 s⁻¹ |  |  |
| A12C U65A | 0.00216 ± 0.00024 s⁻¹ | 0.000932 ± 0.00017 s⁻¹ | 0.00173 ± 0.00015 s⁻¹ | 2790 ± 570 µM | 0.000345 ± 6.5e-05 s⁻¹ | 3.82e-05 ± 8.1e-06 s⁻¹ | 0.000134 ± 3.3e-05 s⁻¹ |
